# B1: 2G1: parental chimeric anti-CMKLR1 antibody: heavy chain variable domain SEQ ID No. 37, light chain variable domain SEQ ID No. 49 (antibody, V domains shown)
# VH: EVQLVASGGGLVQPGGSLKLSCAASGFTFSSYGMSWVRQTPDRRLELVATINRYGGSTYYPDSVKGRFTISRDNAKNTLYLQMSSLKSEDTAMYYCPRLIYYGNEGDSWGQGTTLTVSS
# VL: QIVLTQSPAIMSASPGEKVTMTCSASSSVSFMHWYQQKSGTSPKRWIYDTTKLTSGVPARFSGSGSGTFYSLTISSMEAEDAATYYCQQWNSKPPLTFGPGTKLELKR
# Assays:
# [1] = tested on: PMN from healthy volunteers or ANCA patients; assay: Neutrophils transmigration through endothelial monolayer (HDMEC transwell); format: cell-based, human
# Protocol: Endothelial cells were coated and +/−activated with 100 U/mL of TNFa overnight. Then PMN were added with or without TNFa at 100 U/mL and Ab for two hours. The transmigrated PMN were collected and analyzed by flow cytometry.
# Human endothelial cells (HDMEC) were incubated for 24 h in the transwell coated with gelatin and activated overnight with TNF-alpha at 100 U/mL or without inflammatory conditions. Then, PMN from healthy volunteers or ANCA patients were incubated in transwell containing the monolayer of HDMEC for 4 hours. Antibodies (Iso Ctrl and 2G1) were added at 10 μg/mL+/−TNF-alpha at 100 U/mL during the 4 hours of the transmigration assay. The lower transmigrated part of the transwell was collected and the transmigrated PMN were counted by flow cytometry using counting beads.
# colitis induced by DSS = assay: acute inflammatory colitis model induced by DSS; format: in vivo, mice
# Protocol: FIG. 2. Effect of an anti-CMKLR1 antibody on a mice acute inflammatory colitis model induced by DSS. Mice were injected after 6 days of DSS induction with isotype control hIgG1 (10 μg per mouse) (x), RvE1 (1 μg per mouse) daily (●), or 2G1 antibody (10 μg per mouse) three times (□) for 5 days. Wild type mice, not treated, are represented by an ▾. A. Animal weight loss. B. Animal stool score C. Colon length. D. Resolution index.
# Colitis was induced in 8-10 weeks-old-C57Bl/6 male mice by adding 2% (wt/vol) of DSS to the sterile drinking ad libitum water for 6 days. Treatments were injected intra-peritoneally: Isotype control hIgG1 (10 μg per mouse), RvE1 (1 μg per mouse) daily, or 2G1 antibody (10 μg per mouse) three times for 5 days. Colitis follow-up consisting of body weight and stool score (0: normal stool; 4: blood in stool) parameters were performed daily. When mice were euthanized, colon length representing the pathology severity was measured. Resolution index was determined in the different conditions as described in Bannenberg et al., 2005.
# [2] = tested on: Caspase-3 in PMN from healthy volunteers; assay: Caspase-3 expression in PMN by Western Blot; format: cell-based, human; settings: coated Ab at 10 μg/mL; 4 h, 6 h, 11 h; FIG. 26B
# Protocol: Neutrophils were isolated from blood of healthy volunteers and cultured for 24 h (Mortality analysis), or 4 h, 6 h, 11 h (Caspase-3 assay), or 5 h (ROS assay) on coated Iso ctrl (cross), chimeric anti-ChemR23 2G1 (square) or different humanized versions of the 2G1 (diamonds). Mortality of PMN was analyzed by incubating PMN with specific markers of the mortality and viability and then counted by picture analysis.
# PMN from healthy volunteers were incubated in culture medium with coated Ab at 10 μg/mL for different times and collected for Caspase-3 staining analyzed by Western Blot. The intensity of Capase-3 expression was calculated on WB.
# [3] = tested on: Akt and Erk phosphorylation in pro-inflammatory (M1) macrophages; assay: Western blot analysis ERK/Akt phosphorylation; format: cell-based, mice; settings: 2 μg/mL; after 10 to 30 minutes of incubation; FIG. 17
# Protocol: FIG. 17. Study of the CMKLR1 pathway activation: Akt and Erk phosphorylation. Western blot analysis of the ERK and AKT activation pathway after 5, 10 and 30 minutes of mice pro-inflammatory (M1) macrophages incubated with 2G1 or RvE1. The Phosphorylated protein Akt or Erk were assessed using P-Akt antibody or P-Erk antibody (p44/42). A. Erk and Akt activation with RvE1. B. Erk and Akt activation with 2G1.
# Mice pro-inflammatory macrophages (M1) were generated from bone marrow with M-CSF and polarized with IFN-gamma (IFNg) and LPS. Briefly, bone marrow cells were collected by flushing the femoral bone and cultured with 100 ng/mL of mM-CSF for 5 days and then polarized with 20 ng/mL of IFNg and 100 ng/mL of LPS for 24 h. Then, they were deprived of FBS for 24 hours with RPMI FBS 2% medium. Finally, mice pro-inflammatory macrophages were treated with 2 μg/mL of 2G1 antibody at different times: 5, 10 and 30 minutes. Cells were collected in a RIPA buffer. The protein concentration was measured by a BCA protein kit assay. Proteins were denatured by heating at 95° C. for 5 minutes and diluted in DTT and Laemmli solution. After migration and transfer, the nitrocellulose membrane was blocked with 5% BSA in TBS-T for 2 hours. […] Western blot Images were quantified by Multi Gauge software
molecule,measurement,setting,value
B1,transmigration capability of neutrophils,"[1]; 10 μg/mL, compared to control compounds, FIG. 28A",lower transmigration capability
same,PMN transmigration through endothelial monolayer under inflammatory condition,"[1]; PMN and endothelial cells activated with TNFa, healthy volunteers and patients, FIG. 28B",avoids PMN transmigration
same,stool score,"colitis induced by DSS; 0: normal stool, 4: blood in stool, FIG. 2B",significantly better
same,Animal weight loss,"colitis induced by DSS; 10 μg per mouse i.p. three times for 5 days, vs control antibody or RvE1, FIG. 2A",lost significantly less weight
same,caspase-3 cleavage,[2],increases caspase-3 cleavage
same,activation of Akt and Erk proteins (phosphorylation),[3],able to induce the activation of both Akt and Erk proteins
